Paper PMC3635990, “Vpu Binds Directly to Tetherin and Displaces It from Nascent Virions” (PLoS Pathogens, 2013)
Where a chain is given by its changes, count along the chain named. Names may count otherwise.

B1: Tetherin^CC/SS-I46C-HA (natural protein)
chain: MASTSYDYSRVPMEDGDKRSKLLLGIGILVLLIIVILGVPLIIFTCKANSEACRDGLRAVMECRNVTHLLQQELTEAQKGFQDVEAQAATCNHTVMALMASLDAEKAQGQKKVEELEGEITTLNHKLQDASAEVERLRRENQVLSVRIADKKYYPSSQDSS
notes: Tetherin (Bst2/CD317/HM1.24), human; also called TetherinI46C; Teth^CC/SS-I46C-HA; source: HEK293T, co-transfected, in cells and lysate
B2: Tetherin^CC/SS-T45C-HA (natural protein)
chain: B1 chain with T45C, C46I
notes: Tetherin (Bst2/CD317/HM1.24), human; also called TetherinT45C; source: HEK293T, co-transfected, in cells and lysate

Biological target: the molecule itself
Assay: cross-linking; unfractionated whole cell lysates of the oxidised, co-transfected 293T cells of Figure 1B; non-reducing SDS-PAGE (Bio-Rad), Western blot; monomer to dimer

Protein	stoichiometry N
B1	2
B2	2
